# According to patent US20080026996A1, “Selective Vpac2 Receptor Reptide Agonists” (ELI LILLY AND COMPANY, priority 2004, published 2008):
# T1: human VPAC2 receptor (human), P41587
# T1 chain: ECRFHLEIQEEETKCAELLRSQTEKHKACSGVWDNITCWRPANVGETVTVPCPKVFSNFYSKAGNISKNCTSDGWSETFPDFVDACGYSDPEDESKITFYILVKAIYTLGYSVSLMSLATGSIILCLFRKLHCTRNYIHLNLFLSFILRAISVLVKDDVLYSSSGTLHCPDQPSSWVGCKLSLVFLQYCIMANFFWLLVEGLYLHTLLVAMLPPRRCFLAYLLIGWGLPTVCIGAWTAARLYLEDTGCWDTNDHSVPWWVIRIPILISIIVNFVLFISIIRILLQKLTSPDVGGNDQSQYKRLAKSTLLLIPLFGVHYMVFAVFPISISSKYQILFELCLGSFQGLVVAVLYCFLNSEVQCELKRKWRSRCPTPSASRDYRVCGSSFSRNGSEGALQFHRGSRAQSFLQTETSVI
# T2: rat PAC1 receptor (rat, UniProt P32215 20-523)
# T2 sequence (looked up): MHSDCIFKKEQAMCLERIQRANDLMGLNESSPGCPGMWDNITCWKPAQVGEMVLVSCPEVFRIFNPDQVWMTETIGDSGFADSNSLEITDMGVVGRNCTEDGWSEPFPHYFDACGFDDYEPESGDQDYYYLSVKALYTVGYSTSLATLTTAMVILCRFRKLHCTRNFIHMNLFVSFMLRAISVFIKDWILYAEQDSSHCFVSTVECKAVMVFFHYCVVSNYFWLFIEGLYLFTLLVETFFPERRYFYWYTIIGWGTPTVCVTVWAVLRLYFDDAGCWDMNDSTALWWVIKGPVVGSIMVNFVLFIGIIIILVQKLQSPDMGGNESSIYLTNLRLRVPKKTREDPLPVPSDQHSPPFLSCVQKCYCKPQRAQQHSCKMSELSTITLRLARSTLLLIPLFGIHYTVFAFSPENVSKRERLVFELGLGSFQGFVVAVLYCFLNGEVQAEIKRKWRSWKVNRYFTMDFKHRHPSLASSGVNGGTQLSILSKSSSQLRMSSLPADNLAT
# T3: rat VPAC1 receptor (rat, UniProt P30083 31-459)
# T3 sequence (looked up): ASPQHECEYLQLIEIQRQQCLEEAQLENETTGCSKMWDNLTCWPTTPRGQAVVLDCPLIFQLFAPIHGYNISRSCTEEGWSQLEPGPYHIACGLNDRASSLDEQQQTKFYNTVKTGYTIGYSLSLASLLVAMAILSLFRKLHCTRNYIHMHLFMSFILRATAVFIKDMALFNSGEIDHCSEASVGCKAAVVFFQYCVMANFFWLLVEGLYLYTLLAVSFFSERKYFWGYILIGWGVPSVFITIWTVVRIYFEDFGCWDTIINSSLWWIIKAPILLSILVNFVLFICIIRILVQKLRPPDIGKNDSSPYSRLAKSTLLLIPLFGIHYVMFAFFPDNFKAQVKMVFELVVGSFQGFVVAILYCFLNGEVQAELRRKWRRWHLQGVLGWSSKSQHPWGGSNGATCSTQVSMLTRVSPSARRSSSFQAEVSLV
# T4: rat VPAC2 receptor (rat, UniProt P35000 23-437)
# T4 sequence (looked up): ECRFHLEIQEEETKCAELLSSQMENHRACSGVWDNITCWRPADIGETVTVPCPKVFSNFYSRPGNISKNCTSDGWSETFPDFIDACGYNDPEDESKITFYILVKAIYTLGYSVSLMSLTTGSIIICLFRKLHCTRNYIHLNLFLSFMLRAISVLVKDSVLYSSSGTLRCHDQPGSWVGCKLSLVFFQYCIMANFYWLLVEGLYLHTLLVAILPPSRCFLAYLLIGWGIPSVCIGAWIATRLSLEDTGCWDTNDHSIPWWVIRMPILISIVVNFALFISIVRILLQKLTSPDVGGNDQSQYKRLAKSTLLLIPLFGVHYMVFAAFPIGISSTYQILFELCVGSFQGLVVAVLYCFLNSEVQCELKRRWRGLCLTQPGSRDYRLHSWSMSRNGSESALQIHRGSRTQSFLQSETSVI
# T5: human VPAC2 receptor (human, UniProt P41587 24-438)
# T5 sequence (looked up): T1 chain
# Tests used:
# [1] = target: T1, human VPAC2 receptor (human), P41587; experiment: cell-based or functional assay
# [2] = target: T2, rat PAC1 receptor; experiment: cell-based or functional assay
# [3] = target: T3, rat VPAC1 receptor; experiment: cell-based or functional assay
# [4] = target: T4, rat VPAC2 receptor; experiment: cell-based or functional assay
# [5] = target: T4, rat VPAC2 receptor; experiment: IC50 on rat VPAC1 over IC50 on rat VPAC2
# Description: Each assay is done in duplicate and performed on two different membrane preparations.
# TABLE 3 Binding data are expressed as the IC₅₀ values of tracer inhibition. A different reference compound is used as the tracer for the VPAC1 receptor and for the VPAC2 receptor. The last column represents the ratio between the IC₅₀ values on VPAC1 and VPAC2 receptor and is, thus, an index of selectivity for a receptor subtype. […] The values are given with the standard error.
# [6] = target: T3, rat VPAC1 receptor; experiment: cell-based or functional assay; remark: listed apart in the source
# [7] = target: T4, rat VPAC2 receptor; experiment: cell-based or functional assay; remark: listed apart in the source
# [8] = target: T5, human VPAC2 receptor; experiment: cell-based or functional assay
Binder,"EC50 cAMP, Alpha Screen [1] [nM]",adenylate cyclase potency ratio compared to PACAP-27 [2] [fold],"EC50 cAMP, DiscoveRx [3] [nM]","EC50 cAMP, DiscoveRx [4] [nM]",VPAC1/VPAC2 (ratio of IC50 values) [5],cAMP max [6],VPAC1/VPAC2 (EC50 ratio) [7],cAMP max [7],"EC50 cAMP, Alpha Screen [8] [nM]"
HSDAVFTDNYTRLRKQVAAKRYLQSIRNGGPSSGAPPPS (modifications not checked) [P213],0.24,–,–,–,–,–,–,–,–
HSDAVFTDNYTRLRKQVAARRYLQSIRNGGPSSGAPPPS (modifications not checked) [P214],0.16,–,–,–,–,–,–,–,–
"MHSDAVFTDNYTRLRKQVAAKKYLQSIKNKRYGGPSSGAPPPS (N-terminal methionine added (M-), also called VPAC2-P104) [P104]",–,> 1000,6.75,0.51,977,195,184,129,0.27
